From patent US20220251166A1 (Chugai, published 2022)

Biological target: human CD3 on Jurkat luciferase reporter T cells (human)
Test: cell-based or functional assay

relative luciferase activity (fold, maximum), Jurkat luciferase reporter T cells co-cultured with dead (MTX treated) Ba/F3 cells | relative luciferase signal (fold induction), Jurkat luciferase reporter T cells co-cultured with live (untreated) Ba/F3 cells | Binder | further results
 |  | TR01H113-mF18/TR01L0011-mk1 (anti-CD3) (antibody, mouse IgG1, kappa) heavy: QVQLVESGGGVVQPGGSLRLSCAASGFTFSNAWMHWVRQAPGKGLEWVAQIKDKSQNYATYVAESVKGRFTISRADSKNSIYLQMNSLKTEDTAVYYCRYVHYAAGYGVDIWGQGTTVTVSSAKTTPPSVYPLAPGSAAQTNSMVTLGCLVKGYFPEPVTVTWNSGSLSSGVHTFPAVLQSDLYTLSSSVTVPSSTWPSETVTCNVAHPASSTKVDKKIVPRDCGCKPCICTVKEVSKVFIFPPKPKDVLTITLTPKVTCVVVDISKDDPEVQFSWFVDDVEVHTAQTQPREEQFNSTFRSVSELPIMHQDWLNGKEFKCRVNSAAFPAPIEKTISKTKGRPKAPQVYTIPPPKEQMAKDKVSLTCMITDFFPEDITVEWQWNGQPAENYKNTQPIMDTDGSYFVYSKLNVQKSNWEAGNTFTCSVLHEGLHNHHTEKSLSHSPGK light: DIVMTQSPLSLPVTPGEPASISCRSSQPLVHSNRNTYLHWYQQKPGQAPRLLIYKVSNRFSGVPDRFSGSGSGTDFTLKISRVEAEDVGVYYCGQGTQVPYTFGQGTKLEIKRADAAPTVSIFPPSSEQLTSGGASVVCFLNNFYPKDINVKWKIDGSERQNGVLNSWTDQDSKDSTYSMSSTLTLTKDEYERHNSYTCEATHKTSTSPIVKSFNRNEC | relative fold induction of luciferase, Jurkat luciferase reporter T cells co-cultured with dead (MTX treated) Ba/F3 cells: ~20 fold; relative luciferase signal (fold induction, maximum), Jurkat luciferase reporter T cells co-cultured with live (untreated) Ba/F3 cells: ~22 fold
~54 fold | ~5 fold | TR01H113-mF18.G3S2.mC9ECD57/TR01L0011-mk1 (anti-CD3-Clec9A ECD) (antibody, mouse IgG1, kappa) heavy: QVQLVESGGGVVQPGGSLRLSCAASGFTFSNAWMHWVRQAPGKGLEWVAQIKDKSQNYATYVAESVKGRFTISRADSKNSIYLQMNSLKTEDTAVYYCRYVHYAAGYGVDIWGQGTTVTVSSAKTTPPSVYPLAPGSAAQTNSMVTLGCLVKGYFPEPVTVTWNSGSLSSGVHTFPAVLQSDLYTLSSSVTVPSSTWPSETVTCNVAHPASSTKVDKKIVPRDCGCKPCICTVKEVSKVFIFPPKPKDVLTITLTPKVTCVVVDISKDDPEVQFSWFVDDVEVHTAQTQPREEQFNSTFRSVSELPIMHQDWLNGKEFKCRVNSAAFPAPIEKTISKTKGRPKAPQVYTIPPPKEQMAKDKVSLTCMITDFFPEDITVEWQWNGQPAENYKNTQPIMDTDGSYFVYSKLNVQKSNWEAGNTFTCSVLHEGLHNHHTEKSLSHSPGKGGGSGGGSKFFQVSSLVLEQQERLIQQDTALVNLTQWQRKYTLEYCQALLQRSLHSGTDASTGPVLLTSPQMVPQTLDSKETGSDCSPCPHNWIQNGKSCYYVFERWEMWNISKKSCLKEGASLFQIDSKEEMEFISSIGKLKGGNKYWVGVFQDGISGSWFWEDGSSPLSDLLPAERQRSAGQICGYLKDSTLISDKCDSWKYFICEKKAFGSCI light: DIVMTQSPLSLPVTPGEPASISCRSSQPLVHSNRNTYLHWYQQKPGQAPRLLIYKVSNRFSGVPDRFSGSGSGTDFTLKISRVEAEDVGVYYCGQGTQVPYTFGQGTKLEIKRADAAPTVSIFPPSSEQLTSGGASVVCFLNNFYPKDINVKWKIDGSERQNGVLNSWTDQDSKDSTYSMSSTLTLTKDEYERHNSYTCEATHKTSTSPIVKSFNRNEC | 
 |  | TX_3G4VH-mBS1001b/3G4VL-mk1//TR01H113-mBS1001a/TR01L0011-mk1 (anti-PS(3G4)//CD3) (bispecific antibody, mouse IgG1, kappa) heavy 1: EVQLQQSGPELEKPGASVKLSCKASGYSFTGYNMNWVKQSHGKSLEWIGHIDPYYGDTSYNQKFRGKATLTVDKSSSTAYMQLKSLTSEDSAVYYCVKGGYYGHWYFDVWGAGTTVTVSSAKTTPPSVYPLAPGSAAQTNSMVTLGCLVKGYFPEPVTVTWNSGSLSSGVHTFPAVLQSDLYTLSSSVTVPSSTWPSETVTCNVAHPASSTKVDKKIVPRDCGCKPCICTVKEVSKVFIFPPKPKDVLTITLTPKVTCVVVDISKDDPEVQFSWFVDDVEVHTAQTQPREEQFNSTFRSVSELPIMHQDWLNGKEFKCRVNSAAFPAPIEKTISKTKGRPKAPQVYTIPPPKEQMAKDKVSLTCMITDFFPEDITVEWQWNGQPAENYKNTQPIMRTDGSYFVYSKLNVQKSNWEAGNTFTCSVLHEGLHNHHTEKSLSHSPGK light 1: DIQMTQSPSSLSASLGERVSLTCRASQDIGSSLNWLQQGPDGTIKRLIYATSSLDSGVPKRFSGSRSGSDYSLTISSLESEDFVDYYCLQYVSSPPTFGAGTKLELKRADAAPTVSIFPPSSEQLTSGGASVVCFLNNFYPKDINVKWKIDGSERQNGVLNSWTDQDSKDSTYSMSSTLTLTKDEYERHNSYTCEATHKTSTSPIVKSFNRNEC heavy 2: QVQLVESGGGVVQPGGSLRLSCAASGFTFSNAWMHWVRQAPGKGLEWVAQIKDKSQNYATYVAESVKGRFTISRADSKNSIYLQMNSLKTEDTAVYYCRYVHYAAGYGVDIWGQGTTVTVSSAKTTPPSVYPLAPGSAAQTNSMVTLGCLVKGYFPEPVTVTWNSGSLSSGVHTFPAVLQSDLYTLSSSVTVPSSTWPSETVTCNVAHPASSTKVDKKIVPRDCGCKPCICTVKEVSKVFIFPPKPKDVLTITLTPKVTCVVVDISKDDPEVQFSWFVDDVEVHTAQTQPREEQFNSTFRSVSELPIMHQDWLNGKEFKCRVNSAAFPAPIEKTISKTKGRPKAPQVYTIPPPKEQMAKDKVSLTCMITDFFPEDITVEWQWNGQPAENYKNTQPIMDTDGSYFVYSELNVQKSNWEAGNTFTCSVLHEGLHNHHTEKSLSHSPGK light 2: DIVMTQSPLSLPVTPGEPASISCRSSQPLVHSNRNTYLHWYQQKPGQAPRLLIYKVSNRFSGVPDRFSGSGSGTDFTLKISRVEAEDVGVYYCGQGTQVPYTFGQGTKLEIKRADAAPTVSIFPPSSEQLTSGGASVVCFLNNFYPKDINVKWKIDGSERQNGVLNSWTDQDSKDSTYSMSSTLTLTKDEYERHNSYTCEATHKTSTSPIVKSFNRNEC | luciferase signal (fold induction) at 5 nM antibody, Jurkat reporter T cells co-cultured with dead Ba/F3 cells: 16 fold; luciferase signal (fold induction) at 25 nM antibody, Jurkat reporter T cells co-cultured with dead Ba/F3 cells: 70 fold
~46 fold | ~5 fold | TR01H113-mF18.G3S2.mC9.131/TR01L0011-mk1 (anti-CD3-Clec9A CTLD) (antibody, mouse IgG1, kappa) heavy: QVQLVESGGGVVQPGGSLRLSCAASGFTFSNAWMHWVRQAPGKGLEWVAQIKDKSQNYATYVAESVKGRFTISRADSKNSIYLQMNSLKTEDTAVYYCRYVHYAAGYGVDIWGQGTTVTVSSAKTTPPSVYPLAPGSAAQTNSMVTLGCLVKGYFPEPVTVTWNSGSLSSGVHTFPAVLQSDLYTLSSSVTVPSSTWPSETVTCNVAHPASSTKVDKKIVPRDCGCKPCICTVKEVSKVFIFPPKPKDVLTITLTPKVTCVVVDISKDDPEVQFSWFVDDVEVHTAQTQPREEQFNSTFRSVSELPIMHQDWLNGKEFKCRVNSAAFPAPIEKTISKTKGRPKAPQVYTIPPPKEQMAKDKVSLTCMITDFFPEDITVEWQWNGQPAENYKNTQPIMDTDGSYFVYSKLNVQKSNWEAGNTFTCSVLHEGLHNHHTEKSLSHSPGKGGGSGGGSGSDCSPCPHNWIQNGKSCYYVFERWEMWNISKKSCLKEGASLFQIDSKEEMEFISSIGKLKGGNKYWVGVFQDGISGSWFWEDGSSPLSDLLPAERQRSAGQICGYLKDSTLISDKCDSWKYFICEKKAFGSCI light: DIVMTQSPLSLPVTPGEPASISCRSSQPLVHSNRNTYLHWYQQKPGQAPRLLIYKVSNRFSGVPDRFSGSGSGTDFTLKISRVEAEDVGVYYCGQGTQVPYTFGQGTKLEIKRADAAPTVSIFPPSSEQLTSGGASVVCFLNNFYPKDINVKWKIDGSERQNGVLNSWTDQDSKDSTYSMSSTLTLTKDEYERHNSYTCEATHKTSTSPIVKSFNRNEC | 
